{"source": "paper doi:10.1101/2023.07.03.547386", "molecular_target": "ATG8CL (recombinant, purified) (potato)", "sequence (M1C146 whole entry)": "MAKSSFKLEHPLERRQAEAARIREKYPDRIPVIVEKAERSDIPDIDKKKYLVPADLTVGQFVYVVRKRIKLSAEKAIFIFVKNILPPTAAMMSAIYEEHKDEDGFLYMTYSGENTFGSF", "assay": "ITC"}
{"substance": "Rab3GAPL AIM peptide (Rab3GAPL-AIMp)", "values": [{"measurement": "Kd", "result": 962, "unit": "nM"}, {"measurement": "stoichiometry N", "result": 1.03}]}
